Measured values reported in article PMC10359491, “Identification and characterization of aptameric inhibitors of human neutrophil elastase”.

How the values were obtained:
[1] = molecular target: T1, human neutrophil elastase (HNE) (Homo sapiens, UniProt P08246 30-267); assay: enzyme inhibition; conditions: elastin-Congo red, 90% for E6 and E12, ELISA: PBS pH 7.4, 5 mM MgCl2, 10 mM KCl, 0.01% Tween 20, 20 min (temperature not stated), inhibition: 50 mM Tris pH 7.5, 150 mM NaCl, 5 mM MgCl2, 0.
[2] = molecular target: T1, human neutrophil elastase (HNE); assay: ELISA; HNE immobilized; ELISA: PBS pH 7.4, 5 mM MgCl2, 10 mM KCl, 0.01% Tween 20, 20 min (temperature not stated); inhibition: 50 mM Tris pH 7.5, 150 mM NaCl, 10 mM KCl, 5 mM MgCl2, 0.02% Tween 20, 37 C; conditions: protein: commercial; for Kd: label: biotin (ELISA)
[3] = molecular target: T1, human neutrophil elastase (HNE); assay: enzyme inhibition; DQ gelatin substrate; competitive; ELISA: PBS pH 7.4, 5 mM MgCl2, 10 mM KCl, 0.01% Tween 20, 20 min (temperature not stated); inhibition: 50 mM Tris pH 7.5, 150 mM NaCl, 10 mM KCl, 5 mM MgCl2, 0.02% Tween 20, 37 C; conditions: protein: commercial, label: biotin (ELISA)
[4] = molecular target: T1, human neutrophil elastase (HNE); assay: enzyme inhibition; elastin-Congo red, 100 nM HNE; E6/E12 values swapped in a second sentence; ELISA: PBS pH 7.4, 5 mM MgCl2, 10 mM KCl, 0.01% Tween 20, 20 min (temperature not stated); inhibition: 50 mM Tris pH 7.5, 150 mM NaCl, 10 mM KCl, 5 mM MgCl2, 0.02% Tween 20, 37 C; conditions: protein: commercial, label: biotin (ELISA)
[5] = predicted: 1 G4, 3 hairpin loops (not tested)
[6] = predicted: 2 G4, 2 hairpin loops (not tested)

T1 sequence (P08246 30-267): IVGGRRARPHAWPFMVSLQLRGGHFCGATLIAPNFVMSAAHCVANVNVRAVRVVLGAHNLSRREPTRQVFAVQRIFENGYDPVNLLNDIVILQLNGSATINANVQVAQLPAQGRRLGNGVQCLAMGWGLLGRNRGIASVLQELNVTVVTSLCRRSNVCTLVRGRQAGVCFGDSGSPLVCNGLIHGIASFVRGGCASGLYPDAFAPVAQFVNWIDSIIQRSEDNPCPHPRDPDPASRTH

dsDNA 24-mer was tested. Which binding signal [1] did it give?
The binding signal was 10 % inhibition.

B1: NC nonspecific ssDNA (ssDNA)
DNA: CATGCTTCCCCAGGGAGATGAACCCTTTGGGAAACCCTTTGGGAAACCCTTTGGGGAGGAACATGCGTCGCAAAC
Does B1 bind ([2]; label: 5' biotin (ELISA))?
Result: no binding

B2: aptamer E6 (ssDNA)
DNA: CATGCTTCCCCAGGGAGATGAGGACGGGCGTGGGGATGGGTATGGTGCAACTCCCGAGGAACATGCGTCGCAAAC
B2 was tested. Which Kd [2, 5] did it give?
Its Kd is 20.5 nM.

What about the Ki [3, 5] of the same molecule?
The Ki was 52 ± 6 nM.

And the IC50 [4, 5]?
The IC50 was 173 nM.

B3: aptamer E12 (ssDNA)
DNA: CATGCTTCCCCAGGGAGATGGGCGTGGGGGTTGGGTATGGTGCTTGAGGGGCCTGGAGGAACATGCGTCGCAAAC
Which results are given for B3?
Kd [2, 6]: 13.9 nM; Ki [3, 6]: 22 ± 1 nM; IC50 [4, 6]: 178 nM
